Measured values as given in patent US20240368259A1 (ONENA MEDICINES S L, published 2024).
Substitutions are numbered along the chain they refer to.

T1: BMPR2 (BMP receptor, in mouse fibroblasts and mouse mammary cells) (mouse, UniProt O35607 27-1038)
T1 construct: whole, on cells; For the co-IP it came from cell lysate; also called BMP Type II receptor
T1 sequence (looked up): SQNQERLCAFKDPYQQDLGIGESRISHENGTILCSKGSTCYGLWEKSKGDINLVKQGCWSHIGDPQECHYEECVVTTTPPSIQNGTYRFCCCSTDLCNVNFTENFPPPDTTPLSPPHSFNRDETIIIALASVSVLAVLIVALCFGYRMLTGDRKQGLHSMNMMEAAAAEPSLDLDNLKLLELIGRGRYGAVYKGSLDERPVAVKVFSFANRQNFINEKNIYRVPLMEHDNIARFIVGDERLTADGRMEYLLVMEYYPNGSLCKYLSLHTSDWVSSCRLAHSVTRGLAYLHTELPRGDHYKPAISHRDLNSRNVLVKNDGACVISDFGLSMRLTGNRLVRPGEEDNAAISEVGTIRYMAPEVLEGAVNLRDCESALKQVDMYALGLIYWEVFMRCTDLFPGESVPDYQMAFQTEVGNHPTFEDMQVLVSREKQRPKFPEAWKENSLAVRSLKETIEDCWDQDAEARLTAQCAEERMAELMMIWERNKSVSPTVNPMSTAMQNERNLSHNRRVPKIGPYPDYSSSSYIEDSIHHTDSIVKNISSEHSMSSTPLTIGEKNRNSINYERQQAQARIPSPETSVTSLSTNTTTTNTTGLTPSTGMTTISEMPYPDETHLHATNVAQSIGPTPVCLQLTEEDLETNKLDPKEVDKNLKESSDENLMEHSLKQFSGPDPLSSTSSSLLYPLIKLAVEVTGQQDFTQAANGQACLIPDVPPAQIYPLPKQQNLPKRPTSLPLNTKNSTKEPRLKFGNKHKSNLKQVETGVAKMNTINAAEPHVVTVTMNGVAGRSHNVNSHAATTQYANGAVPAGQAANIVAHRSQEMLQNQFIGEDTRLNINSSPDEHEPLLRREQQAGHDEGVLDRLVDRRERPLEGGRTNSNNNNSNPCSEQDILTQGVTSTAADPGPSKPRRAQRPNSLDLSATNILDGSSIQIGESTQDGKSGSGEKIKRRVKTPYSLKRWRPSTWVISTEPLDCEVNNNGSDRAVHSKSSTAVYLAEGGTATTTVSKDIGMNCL

T2: recombinant human LEFTY2 protein (R&D Systems, catalog number 746-LF-025) (human, UniProt O00292 78-366, limits assumed)
T2 construct: also called Lefty R&D; rhLefty2 protein
T2 sequence (looked up): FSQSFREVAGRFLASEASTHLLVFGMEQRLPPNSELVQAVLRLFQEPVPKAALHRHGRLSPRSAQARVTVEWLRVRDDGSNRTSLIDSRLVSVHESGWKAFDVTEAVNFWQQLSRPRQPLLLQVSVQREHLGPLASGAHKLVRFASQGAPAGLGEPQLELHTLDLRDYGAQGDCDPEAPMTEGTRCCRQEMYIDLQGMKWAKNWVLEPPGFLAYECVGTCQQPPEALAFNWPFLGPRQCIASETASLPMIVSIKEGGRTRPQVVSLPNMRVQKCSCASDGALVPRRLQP

T3: 1189 SCR1 (human LEFTY1-human Fc fusion protein) (human)
T3 construct: also called Lefty SCR; Lefty Scr
T3 chain: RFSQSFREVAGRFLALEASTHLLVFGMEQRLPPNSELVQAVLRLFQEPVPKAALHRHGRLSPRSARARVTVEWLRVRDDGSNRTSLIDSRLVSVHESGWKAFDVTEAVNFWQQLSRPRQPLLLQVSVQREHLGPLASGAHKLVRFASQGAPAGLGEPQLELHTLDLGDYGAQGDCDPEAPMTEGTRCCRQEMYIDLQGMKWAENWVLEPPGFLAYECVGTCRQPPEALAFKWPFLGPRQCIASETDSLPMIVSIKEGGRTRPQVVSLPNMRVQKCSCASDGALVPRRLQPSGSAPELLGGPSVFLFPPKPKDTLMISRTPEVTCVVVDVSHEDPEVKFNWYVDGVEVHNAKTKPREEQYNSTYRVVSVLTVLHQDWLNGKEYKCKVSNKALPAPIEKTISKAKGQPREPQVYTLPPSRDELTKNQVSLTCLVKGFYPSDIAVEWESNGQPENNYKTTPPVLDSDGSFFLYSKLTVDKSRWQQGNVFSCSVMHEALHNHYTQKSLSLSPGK

T4: 1189 IMM (human LEFTY1-Rabbit Fc fusion protein) (human)
T4 construct: also called Lefty IMM; Lefty Imm
T4 chain: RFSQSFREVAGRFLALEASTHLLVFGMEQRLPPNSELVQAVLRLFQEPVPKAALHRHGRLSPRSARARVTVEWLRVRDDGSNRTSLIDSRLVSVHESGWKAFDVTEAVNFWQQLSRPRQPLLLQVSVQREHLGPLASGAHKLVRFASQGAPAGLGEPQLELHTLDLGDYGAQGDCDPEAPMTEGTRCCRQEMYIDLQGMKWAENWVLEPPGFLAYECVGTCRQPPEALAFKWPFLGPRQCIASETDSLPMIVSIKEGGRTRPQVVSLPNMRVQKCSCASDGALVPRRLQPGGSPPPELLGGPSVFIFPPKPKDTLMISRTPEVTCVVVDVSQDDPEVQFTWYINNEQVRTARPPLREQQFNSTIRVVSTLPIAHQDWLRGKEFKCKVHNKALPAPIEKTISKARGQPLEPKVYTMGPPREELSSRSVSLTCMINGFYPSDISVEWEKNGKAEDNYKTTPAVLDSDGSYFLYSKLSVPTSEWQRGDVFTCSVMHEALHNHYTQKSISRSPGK

T5: BMPR2 on human breast cancer cells (PDX tumor cells, MDA-MB-231) (human, UniProt Q13873 27-1038)
T5 construct: whole, on cells
T5 sequence (looked up): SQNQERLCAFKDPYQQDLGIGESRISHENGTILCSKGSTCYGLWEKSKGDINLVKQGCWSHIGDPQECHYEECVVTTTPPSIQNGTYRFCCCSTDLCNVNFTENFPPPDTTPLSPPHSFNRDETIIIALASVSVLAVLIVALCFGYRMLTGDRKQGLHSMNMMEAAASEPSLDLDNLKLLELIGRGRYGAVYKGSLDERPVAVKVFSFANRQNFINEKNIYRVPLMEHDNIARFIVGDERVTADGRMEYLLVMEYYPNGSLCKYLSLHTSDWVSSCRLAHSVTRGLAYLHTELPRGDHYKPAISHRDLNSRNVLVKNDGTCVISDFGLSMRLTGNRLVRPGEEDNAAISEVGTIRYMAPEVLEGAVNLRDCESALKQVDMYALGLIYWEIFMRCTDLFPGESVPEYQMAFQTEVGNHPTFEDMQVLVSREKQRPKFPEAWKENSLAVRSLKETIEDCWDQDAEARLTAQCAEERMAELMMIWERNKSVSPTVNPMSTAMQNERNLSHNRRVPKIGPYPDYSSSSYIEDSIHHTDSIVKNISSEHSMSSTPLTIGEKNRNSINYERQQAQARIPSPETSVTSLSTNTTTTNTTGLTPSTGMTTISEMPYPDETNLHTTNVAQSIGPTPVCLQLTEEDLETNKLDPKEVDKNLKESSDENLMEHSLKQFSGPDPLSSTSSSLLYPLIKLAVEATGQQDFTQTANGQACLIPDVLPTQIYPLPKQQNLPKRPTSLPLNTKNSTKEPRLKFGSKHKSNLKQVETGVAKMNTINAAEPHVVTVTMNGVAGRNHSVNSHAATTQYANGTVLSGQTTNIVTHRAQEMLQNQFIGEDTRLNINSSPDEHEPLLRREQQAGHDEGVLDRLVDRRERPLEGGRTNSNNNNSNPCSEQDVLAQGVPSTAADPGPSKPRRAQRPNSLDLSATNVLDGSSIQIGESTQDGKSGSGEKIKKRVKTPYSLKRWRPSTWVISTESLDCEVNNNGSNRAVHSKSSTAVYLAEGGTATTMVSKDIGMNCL

B1: LEFTY1 (recombinant mouse Lefty1 protein, R&D Systems, catalog number 994-LF) (ligand, UniProt Q64280 78-368, looked up)
chain: FSQNLREVAGRFLVSETSTHLLVFGMEQRLPPNSELVQAVLRLFQEPVPRTALRRQKRLSPHSARARVTIEWLRFRDDGSNRTALIDSRLVSIHESGWKAFDVTEAVNFWQQLSRPRQPLLLQVSVQREHLGPGTWSSHKLVRFAAQGTPDGKGQGEPQLELHTLDLKDYGAQGNCDPEAPVTEGTRCCRQEMYLDLQGMKWAENWILEPPGFLTYECVGSCLQLPESLTSRWPFLGPRQCVASEMTSLPMIVSVKEGGRTRPQVVSLPNMRVQTCSCASDGALIPRRLQP
notes: Added to cells at 200 ng/ml (co-IP, SMAD assays)
B2: SCBT anti-lefty antibody (Santa Cruz Biotechnology, catalog number sc-365845, mAb D6) (antibody, mouse IgG1, kappa)
heavy: QVQLQQSGAELVRPGASVKLSCKALGYTFADYEMHWVRQTPVHGLEWTGSIHPGSGGTAYDQRFKGKATLTADKSSSTAYMELSSLTSEDSAVYYCTFYDLDYWGQGTTLTVSSAKTTPPSVYPLAPGSAAQTNSMVTLGCLVKGYFPEPVTVTWNSGSLSSGVHTFPAVLQSDLYTLSSSVTVPSSTWPSETVTCNVAHPASSTKVDKKIVPRDCGCKPCICTVPEVSSVFIFPPKPKDVLTITLTPKVTCVVVDISKDDPEVQFSWFVDDVEVHTAQTQPREEQFNSTFRSVSELPIMHQDWLNGKEFKCRVNSAAFPAPIEKTISKTKGRPKAPQVYTIPPPKEQMAKDKVSLTCMITDFFPEDITVEWQWNGQPAENYKNTQPIMDTDGSYFVYSKLNVQKSNWEAGNTFTCSVLHEGLHNHHTEKSLSHSPGK
light: DILMTQAAPSISVTPGESVSISCRSSESLLHSNGNTYLYWFLQRPGQSPQLLIYRKSNLASGVPDRFSGSGSGTAFTLRISRVEAEDVGVYYCMQQLEYPLTFGGGTKLELKRADAAPTVSIFPPSSEQLTSGGASVVCFLNNFYPKDINVKWKIDGSERQNGVLNSWTDQDSKDSTYSMSSTLTLTKDEYERHNSYTCEATHKTSTSPIVKSFNRNEC
notes: The ELISA protocol prints the catalog number as sc-36584, the proliferation protocols as sc-365845; also called SCBT antibody; SCBT Ab
B3: BMP7 in human breast cancer PDX cells (ligand, UniProt P18075 293-431, looked up)
chain: STGSKQRSQNRSKTPKNQEALRMANVAENSSSDQRQACKKHELYVSFRDLGWQDWIIAPEGYAAYYCEGECAFPLNSYMNATNHAIVQTLVHFINPETVPKPCCAPTQLNAISVLYFDDSSNVILKKYRNMVVRACGCH
B4: BMP7 (R&D Systems 5666-BP) (ligand, mouse, UniProt P23359 292-430, looked up)
chain: B3 chain with S4G, N25S, E97D

Assays:
[1] = molecular target: T1, BMPR2 (BMP receptor, in mouse …); experiment: proximity ligation assay in fibroblasts
LRP6 = molecular target: T6, LRP6 (UniProt O88572 20-1613, limits assumed); experiment: proximity ligation assay in fibroblasts
T6 construct: whole, on cells
T6 sequence (O88572 20-1613 limits assumed): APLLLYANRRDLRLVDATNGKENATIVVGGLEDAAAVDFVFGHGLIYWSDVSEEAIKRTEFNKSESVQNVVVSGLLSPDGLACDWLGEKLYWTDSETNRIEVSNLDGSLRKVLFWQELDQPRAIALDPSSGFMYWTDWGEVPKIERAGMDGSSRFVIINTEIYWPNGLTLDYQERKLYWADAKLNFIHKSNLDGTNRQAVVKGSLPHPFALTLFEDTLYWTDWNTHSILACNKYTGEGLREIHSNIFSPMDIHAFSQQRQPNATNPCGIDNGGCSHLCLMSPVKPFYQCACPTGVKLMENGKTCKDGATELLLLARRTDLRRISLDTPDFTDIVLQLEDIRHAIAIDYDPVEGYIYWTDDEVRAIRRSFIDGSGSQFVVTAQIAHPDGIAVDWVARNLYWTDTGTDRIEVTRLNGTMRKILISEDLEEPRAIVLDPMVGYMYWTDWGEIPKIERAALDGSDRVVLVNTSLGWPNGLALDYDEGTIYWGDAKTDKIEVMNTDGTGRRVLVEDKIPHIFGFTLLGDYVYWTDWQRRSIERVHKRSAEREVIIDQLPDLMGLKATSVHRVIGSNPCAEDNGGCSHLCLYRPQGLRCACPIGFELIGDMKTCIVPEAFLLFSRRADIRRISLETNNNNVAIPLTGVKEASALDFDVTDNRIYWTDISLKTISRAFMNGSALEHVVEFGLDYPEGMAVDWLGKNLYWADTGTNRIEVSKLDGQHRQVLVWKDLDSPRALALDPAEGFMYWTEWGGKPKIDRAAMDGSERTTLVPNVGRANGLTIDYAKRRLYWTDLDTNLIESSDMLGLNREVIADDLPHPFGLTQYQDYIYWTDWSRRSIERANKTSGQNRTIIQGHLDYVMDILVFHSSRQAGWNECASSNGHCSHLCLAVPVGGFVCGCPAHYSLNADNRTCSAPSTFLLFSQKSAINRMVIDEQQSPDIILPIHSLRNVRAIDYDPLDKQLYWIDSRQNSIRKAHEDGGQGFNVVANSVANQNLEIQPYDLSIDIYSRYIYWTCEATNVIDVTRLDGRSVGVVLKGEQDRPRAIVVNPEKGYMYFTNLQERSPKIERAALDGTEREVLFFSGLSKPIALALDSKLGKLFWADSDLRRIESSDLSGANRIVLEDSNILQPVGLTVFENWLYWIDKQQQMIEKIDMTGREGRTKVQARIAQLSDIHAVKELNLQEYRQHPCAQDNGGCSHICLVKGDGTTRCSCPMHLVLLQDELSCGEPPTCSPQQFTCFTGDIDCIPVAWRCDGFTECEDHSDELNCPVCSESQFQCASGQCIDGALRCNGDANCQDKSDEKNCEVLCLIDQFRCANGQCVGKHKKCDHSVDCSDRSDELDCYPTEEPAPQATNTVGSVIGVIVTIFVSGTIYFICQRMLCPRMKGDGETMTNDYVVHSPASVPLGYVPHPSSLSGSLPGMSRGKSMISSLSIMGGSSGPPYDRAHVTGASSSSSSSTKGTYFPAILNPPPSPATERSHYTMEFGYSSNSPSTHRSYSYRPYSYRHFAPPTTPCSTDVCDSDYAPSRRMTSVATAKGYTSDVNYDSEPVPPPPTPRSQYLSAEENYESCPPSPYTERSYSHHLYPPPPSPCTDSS

[2] = molecular target: B2; experiment: competition ELISA: the peptide is added to the antibody on coated LEFTY proteins
[3] = molecular target: T2, recombinant human LEFTY2 protein (R&D …); experiment: ELISA, plate coated with 5 ug/ml protein, 5 ug/ml primary antibody, absorbance at 450 nm
[4] = molecular target: T3, 1189 SCR1 (human LEFTY1-human Fc fusion …); experiment: as above
[5] = molecular target: T4, 1189 IMM (human LEFTY1-Rabbit Fc fusion …); experiment: as above
[6] = molecular target: T5, BMPR2 on human breast cancer cells (PDX …); experiment: proximity ligation assay on sorted PDX cells

Binder: B1
- binding result [1]: binds
- binding result (LRP6): no binding

Binder: PMIVSVKEGGRTRPQVVSLPNMRVQT [Lefty1 peptide PMIVSVKEGGRTRPQVVSLPNMRVQT]
- binding result [2]: binds

Binder: B2
- binding result [3]: binds
- binding result [4]: binds
- binding result [5]: binds

Binder: B3
- binding result [6]: binds

Binder: B4
- binding result [1]: binds
